# Measurements from article PMC3806662.
# Target: BiP (human (endogenous in HEK293T)) (UniProt P11021)
# Experiment: co-IP
# Chain of UniProt P11021 (P11021 19-654): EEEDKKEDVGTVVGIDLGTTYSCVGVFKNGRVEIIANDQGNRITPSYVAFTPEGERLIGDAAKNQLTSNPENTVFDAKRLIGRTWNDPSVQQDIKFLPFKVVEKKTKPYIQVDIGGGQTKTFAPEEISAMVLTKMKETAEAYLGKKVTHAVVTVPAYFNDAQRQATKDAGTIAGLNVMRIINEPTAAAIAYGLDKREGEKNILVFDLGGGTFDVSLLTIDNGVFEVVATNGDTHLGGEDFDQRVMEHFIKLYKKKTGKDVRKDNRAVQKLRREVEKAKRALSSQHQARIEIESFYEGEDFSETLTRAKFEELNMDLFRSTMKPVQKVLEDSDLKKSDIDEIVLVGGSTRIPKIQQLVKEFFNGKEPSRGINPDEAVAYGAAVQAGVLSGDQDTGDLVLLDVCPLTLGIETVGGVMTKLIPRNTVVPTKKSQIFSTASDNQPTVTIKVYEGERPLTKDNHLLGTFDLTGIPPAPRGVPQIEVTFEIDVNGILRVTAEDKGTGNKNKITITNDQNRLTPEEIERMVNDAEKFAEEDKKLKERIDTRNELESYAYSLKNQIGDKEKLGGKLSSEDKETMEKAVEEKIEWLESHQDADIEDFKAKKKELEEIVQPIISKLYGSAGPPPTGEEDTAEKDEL
substance,measurement,value
QQQ mutant of NHK (from UniProt P01009 25-418) (natural protein),fold co-precipitated relative to NHK,2 fold
